# Experimental data reported in the DeepSol protein solubility set.
# Test: soluble on expression in E. coli; label from the status in PepcDB or PDB records
row,Sequence,soluble on expression in E. coli
1,MVFMQKRIIYGIDIARGSPRARELPRYALAILRDGEISHFSMLRRQKIFNMIQRDRPEIIAVDNIFELAADRNELLSLMERLPDGVKLVQVTGGLHPEPLVRIARKHGISLDPENPNDEAEACARLADLGVGHEVSLFEDITKIKVSRARSLGRGGWSQNRYRRKVHGAVLQRSREIENILKDLSREKGIRFEAVNVKGFGGYVRSEFTVYAKRGEVPVHSMASNDAQVSVRSVERDKIRYVPLKPRSQKRKFTIVGLDPGTTVGIAILSLDGDLLYLKSFRGIAPDEVVKIIAEYGKPAVIASDVTPMPGSVEKIRRSFNAVPASPGIEVSAEEKIALGKTFGYSNDHERDALTAALLTYRSYKNIFTRIEKKAPENSDLELIKLHVIRGESIESAIEKVRAASQAREKPAGARAAPEKPEEKAVDESFQRMRETVQRQGEQIQNLQEYVEELKQAMAAKDRKISKLESRLKGFKKEAYSEIRKSKEVQIRDSTIESLKKELSNKNKTVKELRRRSNKLRKIQKMEIRGEGTPVKVIAAFTKESIAETKEKYGLKAGDVVFLEKPSGGGAATAQILVEARVRAVIIPEDISHAAEETFFKGDVPVLRDIQLERADDFAMALEHHHHHH,not soluble
2,MVFMYIGTVMVEKYNKPHLTFGDQAAQLQLRGLIINNPDDCIGALEKIGYYRLSAYWYPFRKKKPKASRTTPFNYRLDEFEPKHTFEEAVALYRFDESLRRLLLEALGVIEIQLRTKIAYFAGKQDRFIHLKRELLDPIACCRVPKNSTQDSYQIWLHKYHKQIKRAGREDFIRHYQARYGNDIPIWIATEILDFGGVSKLFDFLPKQLKNQIALSFGAKEGTVVAGWIRNFNYIRNVSAHHSRLWNRLVITRIQAPNRNVVDPSIFHLADVKNRKSP,not soluble
3,MVFSKKPITKYITWAIVTSQIPLPVIADSDNEIQSWIAGTASSISPHLQEGTLEDYAKGKIKALPGQAANHLVNEGIKSAFPEIIFRGGVNLEDGAKYRSSEFDMFIPVQETTSSLLFGQLGFRDHDNSSFDGRTYVNVGMGYRQEVNGWLLGVNTFLDADIRYSHLRGGIGGEVYKDSLAFSGNYYFPLTGWKMSAAHELHDERPAYGFDLRTKGTLPDFPWFSGELTYEQYYGDKVDLLGNGTLSRNPRAAGAALVWNPVPLLEVRAGYRDAGNGGSQAEGGLRVNYSFGTPLHEQLDYRNVGAPSNTTNRRAFVDRNYDIVMAYREQASKIRITAMPVSGLSGTLVTLMATVDSRYPVEKVEWSGDAELLAGLQLQGSLGSGLILPQLPLTATDGQEYSLYLTVTDSRGTRVTSERIPVRVTQDETSFRSWINVINDDVQVEDGNFVINTPLPAGEEGKVIEWHYVRERSEEEWASLKPRHIKYQSDTPGLAFKALGGTERDGHWVERVLVTHIGDDARSLKLHIEASGPDDKHPVKGTVLLQAQSDSIAQKVTSVEVLFTPGTEEANGSVTAPVVGTEMRARTLCVNNTDCTDAFNYQWEISDEMKSWQSVPGATKATWLLPYSLNGESLQNKYIRVRIISDKGNAKGNTATSDAN,not soluble
4,MVGDGIAKFIPEGFDAQKIPSFAIEKEPREQGALPADWVLVPEFSLTDGKANASLTVPEGTSIYGGGEVTGSLLRNGKTIKLWNTDSGAYGVDKGTRLYQSHPWMMGVRKDGTAFGILFDTTWKAELSSTDEKIELKSEGIPFRVFIIDRESPQAVIRGLSELTGTMPMIPRWALGYQQCRFSYSPDSRVIEIADTFRLKRIPCDVIWMDIDYMDGYRIFTFNPKSFPNPKAVNRDLHIRGFHSAWMIDPGAKVDPNYFVYKSGTENDVWVKTADGKNFHGDAWPGAAAFPDFTSPKVNKWWRNLYKDFLAQGVDGVWNDVNEPQINDTPNKTMPEDNLHRGGGKLPAGTHLQYHNVYGFLMVKASREGILDARPEKRPFILTRSNFLGGQRYAATWTGDNGSCWDHLKMSVPMSLTLGLSGQPFSGADIGGFLFNADADLFGNWIGFGAFYPFARGHACAGTNNKEPWVFGQKVEDASRIALERRYILLPYFYTLLHEASTNGMPIMRPVFFSDPKDLSLRAEEEAFLVGDNLLIIPAFANQPALPKGIWKELSLVEGDQNDKYQAKMKIRGGAIIPTGKIIQNTTENSLDPLTLLVCLDEQGKASGNMYWDAGDGWSYKKGDYSLLQFVAERNGDKVTVKLTKKTGKYNTENKDMAVIKIITDQGIRQASGNLVEGIEIRL,not soluble
5,MVHHDGFQTVKGTIDWEHPMYKLYEKAKRNGKWNPADIDFSQDKEDFARLTSEEKIAALPLVAGFSAGEEAVTLDILPMAHALARQGRLEDVMFLTTFMHDEAKHVEMFSRWQQEVGIGAMDLSVFHNDHYKRIFYEALPEAMNRLYTDDSPEAVIRAATVYNMIVEGTLAESGYYTFRQIYKKAGLFPGLLQGIDYLNMDEGRHIQFGLYTIQRLVNENERYYDLFIQYMDELWPHVVGYVAYLTELGKRQQQLARTYALEIDYDMLNNYVVKQFNIRKKQISRAKRVDSIEELEKTVAES,not soluble
6,MVINGLDILLQNPEVLRHRRVGLIANQTSVSMQLEYSWMLLKRAGVELTRIFSPEHGLFAIEQDQIAVGHQPDIGCEIVSLYGDSEHSLAPARELLDGLDLVLFDIQDVGSRYYTYVNTLALFMKAAEGLDIEIMVLDRPNPLGGSLIEGPQLDPAFHSFVGVMPLPVRHGLTAGEIAHFYRNYKKLDLNLNVIPMQGWSRQMLFPETCLPWVPPSPNMPSFEAAEVYPGMCLFEGLNVSEGRGTTTPFLLSGATFVDPEALAERLASMPLEGVVFRPTWFRPTFHKYAGEAIGGLYLHVTDHARFRPFATGVAMTCALYELYPEQLAFLDGVYEFRDDIPAFDLLAGSSTIRSMILDNRDTTAIIASWEKDEAEFAAIKPNFHLYNN,not soluble
7,MVINSPEKEDTALILYTSGTTGKPKGVMLTFDNILANVDSLDVYKMYEETDVTIALLPLHHILPLLGTGVMPLLYSATIVFLEDISSVALIDAMKKYKGTMMIGVPKLWEVMHKKIMDTINSKAITRFIFKLAKKVNSLSFSKLIFKKVSEGFGGHIKFFVSGGSKLNPQITKDFYTLGIKICEGYGMTETSPIISYTPKNNIVFDSAGKLEHHHHHH,not soluble
8,MVIQLQKGQKIDLGKTSPGLTKAVIGLGWDIKSYDGGSDFDLDASAFLLDANGKCTKETDFIFYNNLQSPCGSVLHTGDNRTGEGEGEGDDEQLVVDLKKVPADVHRIAITVTIYDAEGRSQNFGQVGNAFVRLANEETNEEVLRFDLGEDFSIETAVVFCELYRHNGQWKFNAVGSGFQGGLGALVRAYGLDA,not soluble
9,MVKFIHCADLHLDSPFKSKSYLSPNIFEDVQKSAYESFKNIVDLALKQEVDFIIIAGDLFDSENRTLRAEVFLNEQFERLRKEQIFVYICHGNHDPLTSKITSQWPNNVSVFSNQVETYQAITKSGETIYIHGFSYQNDASYENKIDAYPSSQGQKGIHIGVLHGTYSKSSVKDRYTEFRLEDLNQRLYHYWALGHIHQREQLSDMPVINYPGNIQGRHFNELGEKGCLLVEGDHLKLTTQFYPTQFIKFEEATIETDHTSKQGLYDVIQSFKDKVRTEGKSFYRLNVRINSEDIIAPQDLIQLKEMITEFEENENQFVFIEDLNLQYVQNDEMPIVKEFSPELLDDASLFDSAMTDLYLNPRASKFLDDYNEFDKVELVNHAERLLKDEMRGEQNDN,not soluble
10,MVKINITAETNGFVLLEHGEVFIKNNNDVSLKLIPNEQEVPLIINIEFANKGGRIASVDRNIVNDKLVFTCNNFQSEPGNWGGIIEPMLIAEMDDCNLYLSFLVWNIDTTNYNRLLNYSFWLKKK,not soluble
11,MVKTGIEDVCGHWGHNFWRDKFKKFDDKYLRNVLIRENQPKSSIVSLYKKLEIKHAIEMAETGMISTVPTFASLNDCREEKIRKVTSSETDEIRELLSRNLYQIRQRTLSYNRHSLTADTSERQAKEILIRRRHSLRESIRKDSSLNREHRASTSTSRYLSLPKNTKLPEKLQKRRTISIADGNSSSSDAHAGTTVLNLLEHHHHHH,not soluble
12,MVKTRLTAEEFFALPLERGELVDGEVREERPPKPEHGRIALRIGYHLMRWLEETGRGVAGVEGGFVLRRDPDRVRSPDVWFLSHERLKEVTREGFYEGAPDLAVEVVSPGEEAEGVLAKVLDYLEAGAKAVWLVYPELKAVEVYGRGGEGRLLRAHEVLEGGEALPGFRLPLEALFGQ,soluble
13,MVLFDQATYEKLLIEAPKFKLITPSILSDRMRVYICIYLLISYSRNDSYIIWQ,not soluble
14,MVLFDVKKYETPDAKDVDMEQTKHNVSVFLSAYLAARCRVGQPREPKVTASFSLVPPSTAKNTFEAEQMLIQKEEAQEEFDYLHKLFVRGYSAIQHPHKPDVTERRKRIFYDRYINGNPIYLAAQRNCISEESVKQESNMIIVQFASALELVAFK,not soluble
15,MVLFMLSESKKKATNWEQITKKHGSVQCVKGCCCYSLIISFMKPKEKKDFVLFCLSSVVTCCRPIQIPSRQEKKGKFLCFFLLVLIR,soluble
16,MVLKTVALVGNPNVGKTTIFNALTGLRQHVGNWPGVTVEKKEGIMEYREKEFLVVDLPGIYSLTAHSIDELIARNFILDGNADVIVDIVDSTCLMRNLFLTLELFEMEVKNIILVLNKFDLLKKKGAKIDIKKMRKELGVPVIPTNAKKGEGVEELKRMIALMAEGKVTTNPIIPRYDEDIEREIKHISELLRGTPLAEKYPIRWLALKLLQRDEEVIKLVLKYLGQEKMDEILKHISELEEKYKRPLDIVIASQKYEFLEQLLRKFVVHE,soluble
17,MVLPLSLLKTAQNHPMLVELKNGETYNGHLKACDSWMNIHLVDVIFTSKDGDKFFKMSEAYVRGSTIKYLRIPETVVDLVKTEVNEVRRQQQREQSRGRGGGRGGRGGHRGGGGNRGGRGGAR,not soluble
18,MVLRRDFLTWCNETLQTALFKDYAPNGLQVEGREYIGKIVTSVTASRAAIDFAVEQKADLLLVHHGMFWKNELPTVTGWKKERIAALLRHDINMAGYHLPLDAHPTLGNNAQLADRLGFATEKRFGEQNLLNSGSLKQAKTLGALAAHIETVLQRKPVVIGKPEREIRRVAWCSGGAQGFFQTAIDEGVDLYLTGEISEAQYHLANETGTAFISAGHHATERYGVRALAESAAEVFGLEVCHFDENNPALEHHHHHH,soluble
19,MVMHIKQSTVRSMLIVARRGKKRLNLDPDALAVLTALINLLAQESVARAAQSAANTGSRHVTKEHLKRVIAQLMLDFAI,not soluble
20,MVMSIEASCHCGETVFEVTEAPSSVTRCTCSLCAKRGSLWAYYKPAQFRLLSPPENVTTYLWGSRTVKHHFCASCGCGTYSESPDWSTGKPDFDNPKVAVNARLFDDFDLDAVPVNMIDGKNLWLEHHHHHH,soluble
